Experimental findings from PMC7307139 are described below.

The assay has as its target T1, vesicular stomatitis virus (VSV) phosphoprotein (P), wild type (vesicular stomatitis virus (VSV)), P03520.
T1 chain: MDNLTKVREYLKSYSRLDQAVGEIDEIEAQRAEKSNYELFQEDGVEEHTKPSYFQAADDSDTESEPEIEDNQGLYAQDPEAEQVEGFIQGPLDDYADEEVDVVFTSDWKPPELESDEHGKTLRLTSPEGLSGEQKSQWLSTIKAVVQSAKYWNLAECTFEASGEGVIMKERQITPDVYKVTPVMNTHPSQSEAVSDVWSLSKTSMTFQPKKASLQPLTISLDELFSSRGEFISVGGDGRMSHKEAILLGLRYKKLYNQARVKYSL
The experiment in a line: SEC-MALS. The settings on record: remark: other sources report otherwise. A general note: Size exclusion chromatography separates by hydrodynamic size, large species first.

B1: vesicular stomatitis virus (VSV) phosphoprotein (P), wild type, P03520 1-265 (natural protein)
chain: T1 chain
One may read the stoichiometry N as a count of units in the complex or per binding partner. B1 returned a stoichiometry N of 2.
